Measured values taken from patent US20050196808A1 (published 2005).
Non-standard residues stand in square brackets, D forms with d. No end group written: not given here. pY = N[C@@H](Cc1ccc(OP(=O)(O)O)cc1)C(=O)O; pT = C[C@@H](OP(=O)(O)O)[C@H](N)C(=O)O

Legend:
[1] = biological target: BRCTtide-7pS, GAAYDI-pS-…; test: ITC, peptide injected into 15 µM GST-(BRCT)2
[2] = biological target: Plk-1 Polo-box Domain (PBD, residues 326-603) (human) (UniProt P53350); test: isothermal titration calorimetry [table]
[3] = biological target: Plk-1 Polo-box Domain (PBD, residues 326-603) (human) (UniProt P53350); test: isothermal titration calorimetry
[4] = biological target: PoloBoxtide-optimal, MAGPMQ-S-pT-P-LNGAKK; test: isothermal titration calorimetry (ITC), peptide injected into 15 µM PBD
[5] = biological target: PoloBoxtide with phosphoserine substituted for phosphothreonine; test: ITC
[6] = biological target: PoloBoxtide with Asn substituted for Pro at pThr+1; test: ITC
[7] = biological target: BRCTtide-7pT, GAAYDI-pT-…; test: ITC, peptide injected into 15 µM GST-(BRCT)2
[8] = biological target: T1, Cdc25C, mitotically phosphorylated (up-shifted) form, endogenous in nocodazole-arrested HeLa cells (human, UniProt P30307 1-473, limits assumed, extensively phosphorylated at the N-terminus in mitosis, including phosphothreonine at 130); test: Ni2+ bead pull-down from nocodazole-arrested transfected HeLa cells, blot α-Cdc25
T1 construct: also called mitotically up-shifted form of Cdc25C; mitotically phosphorylated Cdc25C
T1 sequence (looked up): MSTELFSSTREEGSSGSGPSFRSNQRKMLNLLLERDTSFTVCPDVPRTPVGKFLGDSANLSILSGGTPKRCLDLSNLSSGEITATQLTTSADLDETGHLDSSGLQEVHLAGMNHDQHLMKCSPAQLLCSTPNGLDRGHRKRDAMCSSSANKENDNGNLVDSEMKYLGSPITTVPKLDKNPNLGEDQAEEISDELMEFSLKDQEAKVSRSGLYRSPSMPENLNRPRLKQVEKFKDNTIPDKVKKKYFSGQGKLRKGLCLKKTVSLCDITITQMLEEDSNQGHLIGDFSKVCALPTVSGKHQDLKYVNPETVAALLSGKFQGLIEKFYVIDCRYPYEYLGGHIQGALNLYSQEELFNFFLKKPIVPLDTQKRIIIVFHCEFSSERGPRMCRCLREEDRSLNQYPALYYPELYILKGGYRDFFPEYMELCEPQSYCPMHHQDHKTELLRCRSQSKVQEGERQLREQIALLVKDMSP

[9] = biological target: T2, Plk-1 Polo-box Domain (PBD, residues 326-603) (human, UniProt P53350 326-603); test: isothermal titration calorimetry [table]
T2 construct: also called Plk-1 PBD; Plk1 PBD
Experimental: (§1) Some peptides contained an additional tyrosine residue to facilitate concentration determination by optical absorbance. Calorimetry measurements were performed using a VP-ITC microcalorimeter (MicroCal Inc., Studio City, Calif.). […] Thirty injections were performed with a spacing of 240 s and a reference power of 25 μCal/s. Binding isotherms were plotted and analyzed using Origin Software (MicroCal Inc. Studio City, Calif.).

[10] = biological target: T2, Plk-1 Polo-box Domain (PBD, residues …); test: isothermal titration calorimetry [ITC panels]
Experimental: as §1

“GST-BRCA1 tandem BRCT domains (residues 1634-1863) (from UniProt P38398 1634-1863)” gave a Kd [1] of 0.4 µM.

“PoloBoxtide with phosphoserine substituted for phosphothreonine (peptide)” gave a Kd [2] of 2.1 µM.

With “PoloBoxtide-optimal, MAGPMQ-S-pT-P-LNGAKK (peptide)” the Kd [3] was 0.28 µM and the Kd [2] was 0.28 µM.

In the case of “Plk-1 Polo-box Domain (PBD, residues 326-603) (from UniProt P53350 326-603)”, the Kd [4] is reported as 0.28 µM, the fold drop in affinity against PoloBoxtide-optimal [5] is reported as 7 fold and the fold increase in Kd against PoloBoxtide-optimal [6] is reported as greater than 5 fold.

“GST-PTIP tandem BRCT domains (residues 550-757) (from UniProt Q6ZW49 862-1069)” showed a Kd [1] of 0.28 µM and a Kd [7] of 14.3 µM.

Work on “PoloBoxtide with Asn substituted for Pro at pThr+1 (peptide)” yielded a Kd [2] of 1.5 µM.

B1: His-Xpress-tagged control Plk1 PBD construct lacking the second Polo-box (residues 326-506) (other)
chain: SIAPSSLDPSNRKPLTVLNKGLENPLPERPREKEEPVVRETGEVVDCHLSDMLQQLHSVNASKPSERGLVRQEEAEDPACIPIFWVSKWVDYSDKYGLGYQLCDNSVGVLFNDSTRLILYNDGDSLQYIERDGTESYLTVSSHPNSLMKKITLLKYFRNYMSEHLLKAGANITPREGDELA
notes: not shown: His-Xpress tag
B1: no binding [8].

B2: PoloBoxtide with Ser at pThr-1 replaced with Ala (peptide)
peptide: MAGPMQA[pT]PLNGAKK
B2: no binding (tested: 150 µM Plk-1 PBD) [9].

B3: PoloBoxtide with Ser at pThr-1 replaced with Cys (peptide)
peptide: MAGPMQC[pT]PLNGAKK
B3: no binding (tested: 150 µM Plk-1 PBD) [9].

B4: PoloBoxtide-7V (peptide)
peptide: MAGPMQV[pT]PLNGAKK
notes: also called phosphopeptide whose serine at pThr-1 was mutated to valine
B4: no binding (tested: molar ratio about 2.7) [10].

B5: PoloBoxtide with Ser at pThr-1 replaced with Thr (peptide)
peptide: MAGPMQT[pT]PLNGAKK
B5: no binding (tested: 150 µM Plk-1 PBD) [9].

B6: PoloBoxtide with Ser at pThr-1 replaced with Gly (peptide)
peptide: MAGPMQG[pT]PLNGAKK
B6: no binding (tested: 150 µM Plk-1 PBD) [9].

B7: PoloBoxtide with phosphotyrosine substituted for phosphothreonine (peptide)
peptide: MAGPMQS[pY]PLNGAKK
notes: built from the optimal peptide
B7: no binding (tested: 150 µM Plk-1 PBD) [9].
